Reference: EP4714976A1
Positions count from the first letter of the chain named.

B1: 3F10 scFv displayed on phage (scFv)
scFv: EVQLQQSGAELVKPGASVKMSCKASGYTFSFYNIHWVRQTPGQGLEWIGLIYPDNGDTSYNQKFKAKATLTADKSSSTAYMQLSSLTSEDSAVYYCARGGFDYWGQGTTLTVSSGGGGSGGGGSGGGGSDVLMTQSPASLSASVGETVTITCGASENIYGALNWYQRKQGKSPQLLIYGATNLADGMSSRFSGSGSGRQYSLKISSLHPDDVATYYCQNVLSTPYTFGGGTKLEIK
B2: 3F11 scFv displayed on phage (scFv)
scFv: QVQLQQSGAELVKPGASVKMSCKASGYTFAPYNIHWVRQTPGQGLEWIGLIYPDNGDTSYNQKFKAKATLTADKSSSTAYMQLSSLTSEDSAVYYCARGGFDYWGQGTSLTVSSGGGGSGGGGSGGGGSDIVMTQSQKFMSTSVGDRVSVTCKASQNVGTNVAWYQQKPGQSPKALIYSASYRYSGVPDRFTGSGSGTDFTLTISNVQSEDLAEYFCQQHYSTPFTFGSGTKLEIK
B3: 3A8 scFv displayed on phage (scFv)
scFv: B2 scFv with A30T, P31I, S209A, E214D, F225Y, S229G, I235M
B4: 3E3 scFv displayed on phage (scFv)
scFv: QVQLQQPGAVLVKPGASVRMSCKASGYTFPYYNVHWVKRTPGQGLEWIGLIYPDNGDTSYNQKFTGKATLTADTSSSTAYMQLSSLTSEDSAVYYCARGGLDYWGQGTTLTVSAGGGGSGGGGSGGGGSDVQITQSPASLSASVGETVTITCGASENIYGALNWYQRKQGKSPQLLIYGATNLADGMSSRFSGSGSGRQYSLKISSLHPDDVATYYCQNVLSTPYTFGGGTKLEIK
B5: 3E1 scFv displayed on phage (scFv)
scFv: QVQLQQPGAEVVKPGASVKMSCKASGYTFTDYYIHWVKQTPGQGLEWIGAIYPDNGDTSYNQKFKVKATLTADKSSSTAYMQLSSLTSEDSAVYYCARAFTYWGQGTLVTVSAGGGGSGGGGSGGGGSDILITQSPASLSASVGETVTITCGASENIYGALNWYQRKQGKSPQLLIYGATNLADGMSSRFSGSGSGRQYSLKISSLHPDDVATYYCQNVLSTPYTFGGGTKLEIK
B6: 1B8 scFv displayed on phage (scFv)
scFv: QIQLQQSGAELVKPGASVKMSCKASGYTFASYNLHWVKQTPGQGLEWIGLIYPENGDTSYNQKFKGKATLTADTSSTTAYIQLSSLTSEDSAVYFCARGGFDYWGQGTSLTVSSGGGGSGGGGSGGGGSDIKMTQSPASLSASVGETVTITCGASENIYGALNWYQRKQGKSPQLLIYGATNLADGMSSRFSGSGSGRQYSLKISSLHPDDVATYYCQNVLSTPYTFGGGTKLEIK
B7: 1A3 scFv displayed on phage (scFv)
scFv: B6 scFv with I2V, S7P, T74K, T77S, S109T, S114Q, K132Q
B8: 3G10 scFv displayed on phage (scFv)
scFv: EVQLQQSGPELVKPGASVKMSCKASGYTFATYNMHWVKQTTGQGLEWIGAIYPDNGDTFYNRKFKDKATLTADKSSTTAYMQLSSLTSEDSAVYYCARGDFAYWGQGTLVTVSAGGGGSGGGGSGGGGSDVLMTQSPASLSASVGETVTITCGASENIYGALNWYQRKQGKSPQLLIYGATNLADGMSSRFSGSGSGRQYSLKISSLHPDDVATYYCQNVLSTPYTFGGGTKLEMK
B9: 3D7 scFv displayed on phage (scFv)
scFv: QVQLQQSGAELVKPGASVKMSCKASGYTFSFYNMHWVKRTPGRGLEWIGLIYPDNGDTSYNQKFKGKATLTADTSSSTAYMQLSSLTSEDSAVYYCARGGLDYWGQGTSLTVSSGGGGSGGGGSGGGGSEIVLTQSPASLAVSLGQRATISCKASQSVDYDGDSYMNWYQQKPGQPPKLLIYGISNRFSGVPDRFSGSGSGTDFTLKISTIKPEDLGMYYCLQGTHQPYTFGGGTKLEIK
B10: 3F5 scFv displayed on phage (scFv)
scFv: EIQLQQSGAELVKPGASVKMSCKASGYTFRYYNMHWVKRTPGQGLEWIGLIYPDNGDTSYNQKFKGKATLTADTSSSTAYMQLSSLTSEDSAVYYCARGGLDYWGQGTTLTVSSGGGGSGGGGSGGGGSDIVLTQSPASLSASVGETVTITCGASENIYGALNWYQRKQGKSPQLLIYGATNLADGMSSRFSGSGSGRQYSLKISSLHPDDVATYYCQNVLSTPYTFGGGTKLEIK
B11: 3B4 scFv displayed on phage (scFv)
scFv: B10 scFv with I2V, E10D, R30S, K38R, V132Q, L133M, T134I, L140M, I235M
B12: 3H6 scFv displayed on phage (scFv)
scFv: QVQLQQSGAELVKPGASVKMSCKASGYTFSFYNIHWVRQTPGQGLEWIGLIYPDNGDTSYNQKFKAKATLTADKSSSTAYMQLSSLTSEDSAVYYCARGGFDYWGQGTTLTVSSGGGGSGGGGSGGGGSDIQMTQSPASLSASVGETVTITCRASENIYSYLAWYQQKQGKSPQLLVYNAKTLAEGVPSRFSGSGSGTQFSLKINSLQPEDFGSYYCQHHYGTPYTFGGGTKLEMK
B13: 2B1 scFv displayed on phage (scFv)
scFv: EVQLQQSGAELVKPGASVKMSCKASGYTFASYNLHWVKQTPGQGLEWIGLIYPENGDTSYNQKFKGKATLTADKSSSTAYIQLSSLTSEDSAVYFCARGGFDYWGQGTSLTVSSGGGGSGGGGSGGGGSDIQMIQSPASLSVSVGETVTITCRASENIYSNLAWYQQKQGKSPQLLVYNAKTLADGVPSRFSGSGSGTQYSLKINSLQPEDFGSYYCQHFWSTPYTFGGGTKLEIK
B14: 3A3 scFv displayed on phage (scFv)
scFv: QVQLQQSGAELVKPGASVKMSCKASGYTFTTYNIHWVRQTPGQGLEWIGLIYPDNGDTSYNQKFKAKATLTADKSSSTAYMHLSSLTSEDSAVYYCARGGFDYWGQGTTLTVSSGGGGSGGGGSGGGGSDIVMTQSHKFMSTSVGDRVSITCKASQDVNTDVSWYQQKPGQSPKLLIYSASYRYTGVPTRFTGSGSGTDFTFTISGVQAEDLADYYCQQHYNTPYTFGGGTRLEIK
B15: 3E7 scFv displayed on phage (scFv)
scFv: QVQLQQSGAELVKPGASVKMSCKASGYTFTIYNIHWVRQTPGQGLEWIGLIYPDNGDTSYNQKFKAKATLTADKSSSTAYMQLSSLTSEDSAVYYCARGGFDYWGQGTTLTVSSGGGGSGGGGSGGGGSNIVMTQSQKFMSTSVGDRVSVTCKASQNVGTNVAWYQQKPGQSPKALIYSASYRYSGVPDRFTGSGSGTDFTLTISGVQAEDLADYYCQQHYNTPYTFGGGTKLEIK
B16: 1D7 scFv displayed on phage (scFv)
scFv: QIQLQQSGAELVKPGASVKMSCKASGYTFRYYNMHWVKRTPGQGLEWIGLIYPDNGDTSYNQKFKGKATLTADTSSSTAYMQLSSLTSEDSAVYYCARGGLDYWGQGTSLTVSSGGGGSGGGGSGGGGSDIQMTQSPSSMSASLGDRITITCQATQDIVKNLNWYQQKPGKPPSFLIYYATELAEGVPSRFSGSGSGSDYSLTISNLESEDFADYYCLQFYEFPLTFGAGTKLELK
B17: 3E2 scFv displayed on phage (scFv)
scFv: EIQLQQSGAELVKPGASVKMSCKASGYTFSFYNMHWVKRTPGQGLEWIGLIYPDNGDTSYNQKFKGKATLTADTSSSTAYMQLSSLTSEDSAVYYCARGGLDYWGQGTSLTVSSGGGGSGGGGSGGGGSNIVMTQSQKFMSTSVGDRVSVTCKASQNVGTNVAWYQQKPGQSPKALIYSASYRYTGVPDRFTGSGSGTDFTFTISSVQAEDLAVYYCQQHYSTPYTFGGGTKLEIK
B18: 1G6 scFv displayed on phage (scFv)
scFv: EIQLQQSGAELVKPGASVKMSCKASGYTFRYYNMHWVKRTPGQGLEWIGLIYPDNGDTSYNQKFKGKATLTADTSSSTAYMQLSSLTSEDSAVYYCARGGLDYWGQGTSLTVSSGGGGSGGGGSGGGGSNIVMTQSHKFMSTSVGDRVSITCKASQDVNTDVAWYQQKPGQSPKLLIYSASYRYTGVPTRFTGSGSGTDFTFTISGVQAEDLADYYCQQHYNTPYTFGGGTKLELK
B19: 3A8 scFv-Fc (Fc fusion)
chain: QVQLQQSGAELVKPGASVKMSCKASGYTFTIYNIHWVRQTPGQGLEWIGLIYPDNGDTSYNQKFKAKATLTADKSSSTAYMQLSSLTSEDSAVYYCARGGFDYWGQGTSLTVSSGGGGSGGGGSGGGGSDIVMTQSQKFMSTSVGDRVSVTCKASQNVGTNVAWYQQKPGQSPKALIYSASYRYSGVPDRFTGSGSGTDFTLTISNVQAEDLADYFCQQHYSTPYTFGGGTKLEMKESKYGPPCPPCPAPEAAGGPSVFLFPPKPKDTLMISRTPEVTCVVVDVSQEDPEVQFNWYVDGVEVHNAKTKPREEQFNSTYRVVSVLTVLHQDWLNGKEYKCKVSNKGLPSSIEKTISKAKGQPREPQVYTLPPSQEEMTKNQVSLTCLVKGFYPSDIAVEWESNGQPENNYKTTPPVLDSDGSFFLYSKLTVDKSRWQEGNVFSCSVMHEALHNHYTQKSLSLSLG
B20: 2B2 scFv displayed on phage (scFv)
scFv: QLQLQQSGAELVKPGASVKMSCKASGYTFASYNLHWVKQTPGQGLEWIGLIYPENGDTSYNQKFKDKATLTADKSSTTAYIQLSSLASEDSAVYFCARGGFDYWGQGTTLTVSSGGGGSGGGGSGGGGSDIVMTQSQKFMSTSVGDRVSVTCKASQNVGTNVAWYQQKPGQSPKALIYSASYRYSGVPDRFTGSGSGTDYTLTISSVQAEDLALYYCQQHYSTPYTFGGGTKLELK

Tests used:
[1] = molecular target: extracellular domain of the FGFR2b protein (NP_075259.4) (UniProt P21802); test: phage ELISA
Sequence of extracellular domain of the FGFR2b protein (NP_075259.4) (P21802 other isoform, or with tags, fused parts or gaps): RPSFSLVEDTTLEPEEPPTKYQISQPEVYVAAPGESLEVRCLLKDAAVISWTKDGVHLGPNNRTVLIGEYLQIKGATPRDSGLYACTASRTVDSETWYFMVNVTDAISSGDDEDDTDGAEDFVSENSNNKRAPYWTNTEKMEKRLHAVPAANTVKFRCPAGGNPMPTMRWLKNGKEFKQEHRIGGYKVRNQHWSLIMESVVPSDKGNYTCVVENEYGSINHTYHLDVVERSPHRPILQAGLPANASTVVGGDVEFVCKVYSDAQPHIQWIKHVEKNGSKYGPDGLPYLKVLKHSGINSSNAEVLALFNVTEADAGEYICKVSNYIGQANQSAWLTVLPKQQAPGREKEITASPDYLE

[2] = molecular target: recombinant mouse FGFR2b (mouse) (UniProt P21803); test: BLI, antibody on AHC2 sensor
Sequence of recombinant mouse FGFR2b (mouse) (P21803 22-377): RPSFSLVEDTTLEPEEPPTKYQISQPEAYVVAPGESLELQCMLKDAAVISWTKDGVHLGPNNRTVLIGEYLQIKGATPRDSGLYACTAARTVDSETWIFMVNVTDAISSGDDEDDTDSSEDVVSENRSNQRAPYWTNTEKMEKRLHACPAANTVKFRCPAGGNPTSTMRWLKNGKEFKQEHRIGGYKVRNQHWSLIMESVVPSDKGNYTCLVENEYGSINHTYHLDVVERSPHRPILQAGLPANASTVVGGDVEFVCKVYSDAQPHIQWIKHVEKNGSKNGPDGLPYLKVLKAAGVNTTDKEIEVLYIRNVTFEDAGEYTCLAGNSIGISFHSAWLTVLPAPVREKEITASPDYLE

| Binder | OD (450 nm) value [1] | other results |
| --- | --- | --- |
| B1 | 1.85 | – |
| B2 | 2 | – |
| B3 | 2.22 | – |
| B4 | 2.28 | – |
| B5 | 2.17 | – |
| B6 | 2.65 | – |
| B7 | 2.67 | – |
| B8 | 1.95 | – |
| B9 | 2.2 | – |
| B10 | 1.94 | – |
| B11 | 2.47 | – |
| B12 | 2.29 | – |
| B13 | 2.33 | – |
| B14 | 2.33 | – |
| B15 | 1.88 | – |
| B16 | 2.14 | – |
| B17 | 1.87 | – |
| B18 | 2.44 | – |
| B19 | – | Kd [2]: 7.17 nM; koff [2]: 0.000306 s⁻¹; kon [2]: 42700 M⁻¹ s⁻¹ |
| B20 | 2.38 | – |
